Source: paper PMC7982615, “Phase 1 study of telisotuzumab vedotin in Japanese patients with advanced solid tumors” (Cancer Medicine, 2021)
Entries after “also recorded” stand apart in the source; their conditions may differ.

Test: Safety and tolerability (TEAEs, DLTs, AESIs) in phase 1 dose-escalation study of teliso‐v
Format: in vivo, human
Conditions: for Dose‐limiting toxicity (DLT) events: 2.4 and 2.7 mg/kg IV Q3W, dose escalation
Procedure: This phase 1, open‐label, dose‐escalation clinical trial was conducted at two sites in Japan (NCT03311477). Enrollment began on November 6, 2017, and the trial was completed on March 4, 2019.
Escalation into the higher dose level proceeded if the first three evaluable patients in the lower dose level completed the first‐cycle (for at least 21 days) safety assessment without experiencing a dose‐limiting toxicity (DLT). DLT evaluations for dose escalation and determination of RP2D were carried out by investigators, study sponsor, and an independent safety monitor. […] No premedication was required. On the basis of confirmed availability of archival tumor tissue at enrollment, patients were retrospectively analyzed for c‐Met expression and MET amplification. c‐Met expression was determined by immunohistochemistry (IHC), and MET amplification was determined by fluorescence in situ hybridization or sequencing of plasma or tumor DNA.
Safety assessments included treatment‐emergent adverse events (TEAEs) graded according to the National Cancer Institute Common Terminology Criteria for Adverse Events version 4.03. TEAEs, vital signs, physical examinations, electrocardiograms, laboratory tests, and ECOG performance status were monitored during the study. Any grade ≥3 study drug‐related nonhematologic toxicity was documented as a DLT, except as follows: grade 3 nausea or vomiting lasting ≤48 hours that was successfully managed with antiemetics; grade 3 diarrhea successfully managed with antidiarrheal; grade 3 constipation lasting ≤7 days; grade 3 acute infusion reaction that resolved to grade ≤1 within 24 hours after the end of dosing; grade 3 and 4 laboratory tests including but not limited to lactate dehydrogenase, alkaline phosphatase, and gamma‐glutamyl transferase that were considered nonclinically significant by the investigator; liver function test abnormalities; grade 3 and 4 electrolyte imbalance unless associated with clinical symptomatology despite supplementation; and grade 3 hyperglycemia that was manageable without hospitalization. The following hematologic toxicities were documented as a DLT: any grade 4 hematologic toxicity (excluding febrile neutropenia or leukopenia lasting for ≤7 days, or lymphopenia); anemia requiring red blood cell transfusion; thrombocytopenia requiring platelet transfusion; grade 3 thrombocytopenia in the presence of grade ≥2 bleeding; and grade ≥3 febrile neutropenia. Toxicity management criteria are described in the Supplementary appendix.
All data were summarized and tabulated by dose cohort. Categoric data were summarized in terms of frequency counts and percentages. Continuous data were summarized using descriptive statistics, including number of observations, mean, standard deviation, median, minimum, and maximum. No formal statistical analysis was performed for efficacy variables, which were all exploratory in nature. ORR was defined as the proportion of patients with a confirmed partial response (PR) or complete response (CR). Duration of response was defined as time from a patient's initial objective response to the first date of disease progression (PD) or death. The overall disease control rate was defined as the proportion of patients with CR, PR, or stable disease (SD). […] PFS was estimated using the Kaplan–Meier method. Efficacy analyses are presented with two‐sided exact 95% binomial CI.

[1] = total, N = 9, listed as teliso-v
[2] = total, N = 9, listed as telisotuzumab vedotin
[3] = total, N = 9, listed as teliso‐v

For “Teliso‐v: antibody‐drug conjugate: anti–c‐Met humanized monoclonal antibody ABT‐700 coupled to monomethyl auristatin E through a valine‐citrulline linker, drug:antibody ratio approximately three”, the “Dose‐limiting toxicity (DLT) events” value was “no DLTs were reported; also recorded: no DLTs observed”, the “Dose‐limiting toxicity (DLT) events” value (listed as telisotuzumab vedotin) was “no dose‐limiting toxicity events were observed” and the “Hematologic AEs (AESI)” value (2.4‐mg/kg dose level) was 33%. The “Peripheral neuropathy events (AESI)” value (2.4‐mg/kg dose level) was “three”, the “Hematologic AEs (AESI)” value (2.7‐mg/kg dose level) was 67% and the “Ocular AESIs” value (2.7‐mg/kg dose level) was “three”. The “Peripheral neuropathy events (AESI)” value (2.7‐mg/kg dose level) was “three”, the “Frequency of corneal epithelium disorder” value (Japanese patients, four of nine) was 44.4% and the “AEs leading to withdrawal of consent” value (N = 9) was “three”. For the same substance, the “Dry eye (ocular AESI)” value (N = 9) was “one”, the “Keratitis (ocular AESI)” value (N = 9) was “one” and the “Patients with at least one TEAE” value (N = 9) was “nine”. The “Patients with at least one TEAE related to teliso‐v” value (N = 9) was “nine”, the “Patients with serious AEs” value (N = 9) was “two” and the “Punctate keratitis (ocular AESI)” value (N = 9) was “two”. The “Serious AEs, number of events” value (N = 9) was “Three”, the “Visual impairment (ocular AESI)” value (N = 9) was “one” and the Maximum tolerated dose (doses up to 2.7 mg/kg Q3W, 3 + 3 design) was “not reached”. For the same substance, the Deaths (either dose level) was “No deaths were reported”, the “Recommended phase 2 dose (RP2D)” value (every 3 weeks, Japanese patients) was 2.7 mg/kg and the “Ocular AESIs” value (grade 1 or 2, total, N = 9) was 44%. For the same substance, the “TEAE leading to treatment discontinuation” value (grade 2, teliso‐v related serious AE, 2.7‐mg/kg dose level) was “gait disturbance”, the “Peripheral neuropathy events (AESI)” value (grades 1 and 2, total, N = 9) was 67% and the “Alanine aminotransferase increased, TEAE regardless of relationship” value (total, N = 9) was 2 (22) n (%). For the same substance, the “Alanine aminotransferase increased, TEAE related to teliso‐v” value (total, N = 9) was 2 (22) n (%), the “Alopecia, TEAE regardless of relationship” value (total, N = 9) was 2 (22) n (%) and the “Alopecia, TEAE related to teliso‐v” value (total, N = 9) was 2 (22) n (%). For the same substance, the “Anemia, TEAE regardless of relationship” value (total, N = 9) was 2 (22) n (%), the “Aspartate aminotransferase increased, TEAE regardless of relationship” value (total, N = 9) was 2 (22) n (%) and the “Aspartate aminotransferase increased, TEAE related to teliso‐v” value (total, N = 9) was 2 (22) n (%). The “Back pain, TEAE regardless of relationship” value (total, N = 9) was 2 (22) n (%), the “Constipation, TEAE regardless of relationship” value (total, N = 9) was 2 (22) n (%) and the “Decreased weight, TEAE regardless of relationship” value (total, N = 9) was 33%. The “Decreased white blood cell count, TEAE regardless of relationship” value (total, N = 9) was 33%, the “Decreased white blood cell count, TEAE related to teliso‐v” value (total, N = 9) was 33% and the “Diarrhea, TEAE regardless of relationship” value (total, N = 9) was 2 (22) n (%). The “Fatigue, TEAE regardless of relationship” value (total, N = 9) was 2 (22) n (%), the “Fatigue, TEAE related to teliso‐v” value (total, N = 9) was 2 (22) n (%) and the “Hypoalbuminemia, TEAE regardless of relationship” value (total, N = 9) was 2 (22) n (%). The “Malaise, TEAE regardless of relationship” value (total, N = 9) was 2 (22) n (%), the “Malaise, TEAE related to teliso‐v” value (total, N = 9) was 2 (22) n (%) and the “Neutrophil count decreased, TEAE regardless of relationship” value (total, N = 9) was 2 (22) n (%). For the same substance, the “Neutrophil count decreased, TEAE related to teliso‐v” value (total, N = 9) was 2 (22) n (%), the “Peripheral neuropathy, TEAE regardless of relationship” value (total, N = 9) was 2 (22) n (%) and the “Peripheral neuropathy, TEAE related to teliso‐v” value (total, N = 9) was 2 (22) n (%). The “Punctate keratitis, TEAE regardless of relationship” value (total, N = 9) was 2 (22) n (%), the “Punctate keratitis, TEAE related to teliso‐v” value (total, N = 9) was 2 (22) n (%) and the “Weight decreased, TEAE regardless of relationship” value (total, N = 9) was 3 (33) n (%). For the same substance, the “Weight decreased, TEAE related to teliso‐v” value (total, N = 9) was 2 (22) n (%), the “White blood cell count decreased, TEAE regardless of relationship” value (total, N = 9) was 3 (33) n (%) and the “White blood cell count decreased, TEAE related to teliso‐v” value (total, N = 9) was 3 (33) n (%). The “Decreased appetite, TEAE regardless of relationship” value [1] was 3 (33) n (%), the “Nausea, TEAE regardless of relationship” value [1] was 3 (33) n (%) and the “Peripheral sensory neuropathy, TEAE regardless of relationship” value [1] was 4 (44) n (%). For the same substance, the “Decreased appetite, TEAE related to teliso‐v” value [2] was 33%, the “Nausea, TEAE related to teliso‐v” value [2] was 33% and the “Peripheral sensory neuropathy, TEAE related to teliso‐v” value [2] was 44%. For the same substance, the “Decreased appetite, TEAE regardless of relationship” value [3] was 33%, the “Decreased appetite, TEAE related to teliso‐v” value [3] was 3 (33) n (%) and the “Nausea, TEAE regardless of relationship” value [3] was 33%. For the same substance, the “Nausea, TEAE related to teliso‐v” value [3] was 3 (33) n (%), the “Peripheral sensory neuropathy, TEAE regardless of relationship” value [3] was 44% and the “Peripheral sensory neuropathy, TEAE related to teliso‐v” value [3] was 4 (44) n (%).
